# Experimental data reported in patent US20240261333A1, “NOVEL TARGETS FOR ENHANCING ANTI-TUMOR IMMUNITY” (THE BROAD INSTITUTE, INC., priority 2021, published 2024).
# What was measured:
# ZRANB2 (human) = ZRANB2 (human) (UniProt O95218); assay: IgG control IP from lysate of N-FLAG B3GNT2 cells, mass spectrometry
# PSMB6 (human) = PSMB6 (human) (UniProt P28072); assay: as above
# RRBP1 (human) = RRBP1 (human) (UniProt Q9P2E9); assay: as above
# ERP44 (human) = ERP44 (human) (UniProt Q9BS26); assay: as above
# H1FX (human) = H1FX (human) (UniProt Q92522); assay: as above
# PXN (human) = PXN (human) (UniProt P49023); assay: as above
# PDIA4 (human) = PDIA4 (human) (UniProt P13667); assay: as above
# AIFM1 (human) = AIFM1 (human) (UniProt O95831); assay: as above
# PSMB4 (human) = PSMB4 (human) (UniProt P28070); assay: as above
# LARP4 (human) = LARP4 (human) (UniProt Q71RC2); assay: as above
# HDGFL2 (human) = HDGFL2 (human) (UniProt Q7Z4V5); assay: as above
# PSMA5 (human) = PSMA5 (human) (UniProt P28066); assay: as above
# IFI16 (human) = IFI16 (human) (UniProt Q16666); assay: as above
# STAU1 (human) = STAU1 (human) (UniProt O95793); assay: as above
# ACSL3 (human) = ACSL3 (human) (UniProt O95573); assay: as above
# ATAD3A (human) = ATAD3A (human) (UniProt Q9NVI7); assay: as above
# NTPCR (human) = NTPCR (human) (UniProt Q9BSD7); assay: as above
# DNAJA3 (human) = DNAJA3 (human) (UniProt Q96EY1); assay: as above
# KTN1 (human) = KTN1 (human) (UniProt Q86UP2); assay: as above
# RPL15 (human) = RPL15 (human) (UniProt P61313); assay: as above
# PSMC2 (human) = PSMC2 (human) (UniProt P35998); assay: as above
# TECR (human) = TECR (human) (UniProt Q9NZ01); assay: as above
# ERP29 (human) = ERP29 (human) (UniProt P30040); assay: as above
# FBXO6 (human) = FBXO6 (human) (UniProt Q9NRD1); assay: as above
# ELOC (human) = ELOC (human) (UniProt Q15369); assay: as above
# PGAM5 (human) = PGAM5 (human) (UniProt Q96HS1); assay: as above
# EEF2 (human) = EEF2 (human) (UniProt P13639); assay: as above
# RPS6 (human) = RPS6 (human) (UniProt P62753); assay: as above
# RCN1 (human) = RCN1 (human) (UniProt Q15293); assay: as above
# TAF15 (human) = TAF15 (human) (UniProt Q92804); assay: IgG control IP from lysate of cells overexpressing N-FLAG B3GNT2, then mass spectrometry
# SUPT16H (human) = SUPT16H (human) (UniProt Q9Y5B9); assay: as above
# TFAM (human) = TFAM (human) (UniProt Q00059); assay: as above
# CPSF6 (human) = CPSF6 (human) (UniProt Q16630); assay: as above
# TCP1 (human) = TCP1 (human) (UniProt P17987); assay: as above
# CASC3 (human) = CASC3 (human) (UniProt O15234); assay: as above
# CAPRIN1 (human) = CAPRIN1 (human) (UniProt Q14444); assay: as above
# ANXA2 (human) = ANXA2 (human) (UniProt P07355); assay: as above
# EIF3I (human) = EIF3I (human) (UniProt Q13347); assay: as above
# KHDRBS1 (human) = KHDRBS1 (human) (UniProt Q07666); assay: as above
# Sequence of NTPCR (human) (Q9BSD7 2-190 limits assumed): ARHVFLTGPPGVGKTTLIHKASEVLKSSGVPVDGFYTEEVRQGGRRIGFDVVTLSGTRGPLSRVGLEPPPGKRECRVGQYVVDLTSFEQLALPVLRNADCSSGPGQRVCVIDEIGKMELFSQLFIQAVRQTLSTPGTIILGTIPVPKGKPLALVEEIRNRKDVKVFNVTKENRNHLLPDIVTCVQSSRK
# Sequence of H1FX (human) (Q92522 2-213 limits assumed): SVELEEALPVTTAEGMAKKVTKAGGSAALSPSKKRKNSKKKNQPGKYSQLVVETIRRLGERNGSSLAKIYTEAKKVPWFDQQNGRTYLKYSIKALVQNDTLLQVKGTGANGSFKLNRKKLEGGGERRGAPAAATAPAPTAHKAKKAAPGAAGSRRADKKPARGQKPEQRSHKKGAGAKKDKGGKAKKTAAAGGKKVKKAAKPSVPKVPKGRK
# Sequence of ZRANB2 (human) (O95218 other isoform, or with tags, fused parts or gaps limits assumed): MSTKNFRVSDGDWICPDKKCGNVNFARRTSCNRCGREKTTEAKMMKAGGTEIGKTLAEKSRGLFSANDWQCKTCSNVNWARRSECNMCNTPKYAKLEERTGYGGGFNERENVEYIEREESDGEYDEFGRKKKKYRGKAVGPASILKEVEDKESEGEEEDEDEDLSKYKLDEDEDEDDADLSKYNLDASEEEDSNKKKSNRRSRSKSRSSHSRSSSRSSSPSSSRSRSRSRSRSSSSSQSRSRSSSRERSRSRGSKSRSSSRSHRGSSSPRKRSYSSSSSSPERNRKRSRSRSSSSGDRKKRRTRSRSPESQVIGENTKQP
# Sequence of AIFM1 (human) (O95831 55-613 limits assumed): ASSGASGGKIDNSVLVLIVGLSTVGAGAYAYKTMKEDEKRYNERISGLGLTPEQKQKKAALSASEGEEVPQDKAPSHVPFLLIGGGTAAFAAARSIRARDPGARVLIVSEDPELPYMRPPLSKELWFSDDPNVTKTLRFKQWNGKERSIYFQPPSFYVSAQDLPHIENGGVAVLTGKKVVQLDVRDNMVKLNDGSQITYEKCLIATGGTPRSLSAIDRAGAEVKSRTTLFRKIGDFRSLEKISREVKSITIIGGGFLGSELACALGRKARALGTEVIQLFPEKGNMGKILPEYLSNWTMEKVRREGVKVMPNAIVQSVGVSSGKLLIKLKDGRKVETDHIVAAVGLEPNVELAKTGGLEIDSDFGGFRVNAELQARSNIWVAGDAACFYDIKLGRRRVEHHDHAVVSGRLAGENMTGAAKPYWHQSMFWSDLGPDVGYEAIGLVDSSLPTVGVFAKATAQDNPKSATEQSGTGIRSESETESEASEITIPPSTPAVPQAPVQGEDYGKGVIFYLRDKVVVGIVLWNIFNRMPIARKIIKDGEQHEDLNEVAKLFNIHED
# Sequence of PSMA5 (human) (P28066 whole entry): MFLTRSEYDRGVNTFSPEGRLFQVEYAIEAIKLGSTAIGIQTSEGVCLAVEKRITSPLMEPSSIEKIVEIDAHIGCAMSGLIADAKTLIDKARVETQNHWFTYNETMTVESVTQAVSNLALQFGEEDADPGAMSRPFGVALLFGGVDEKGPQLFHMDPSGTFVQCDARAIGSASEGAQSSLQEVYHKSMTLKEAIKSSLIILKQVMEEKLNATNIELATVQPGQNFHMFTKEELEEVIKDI
# Sequence of ELOC (human) (Q15369 whole entry): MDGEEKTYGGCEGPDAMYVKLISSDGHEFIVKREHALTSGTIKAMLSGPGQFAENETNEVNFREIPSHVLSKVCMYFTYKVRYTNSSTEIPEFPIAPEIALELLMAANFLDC
# Sequence of KTN1 (human) (Q86UP2 whole entry): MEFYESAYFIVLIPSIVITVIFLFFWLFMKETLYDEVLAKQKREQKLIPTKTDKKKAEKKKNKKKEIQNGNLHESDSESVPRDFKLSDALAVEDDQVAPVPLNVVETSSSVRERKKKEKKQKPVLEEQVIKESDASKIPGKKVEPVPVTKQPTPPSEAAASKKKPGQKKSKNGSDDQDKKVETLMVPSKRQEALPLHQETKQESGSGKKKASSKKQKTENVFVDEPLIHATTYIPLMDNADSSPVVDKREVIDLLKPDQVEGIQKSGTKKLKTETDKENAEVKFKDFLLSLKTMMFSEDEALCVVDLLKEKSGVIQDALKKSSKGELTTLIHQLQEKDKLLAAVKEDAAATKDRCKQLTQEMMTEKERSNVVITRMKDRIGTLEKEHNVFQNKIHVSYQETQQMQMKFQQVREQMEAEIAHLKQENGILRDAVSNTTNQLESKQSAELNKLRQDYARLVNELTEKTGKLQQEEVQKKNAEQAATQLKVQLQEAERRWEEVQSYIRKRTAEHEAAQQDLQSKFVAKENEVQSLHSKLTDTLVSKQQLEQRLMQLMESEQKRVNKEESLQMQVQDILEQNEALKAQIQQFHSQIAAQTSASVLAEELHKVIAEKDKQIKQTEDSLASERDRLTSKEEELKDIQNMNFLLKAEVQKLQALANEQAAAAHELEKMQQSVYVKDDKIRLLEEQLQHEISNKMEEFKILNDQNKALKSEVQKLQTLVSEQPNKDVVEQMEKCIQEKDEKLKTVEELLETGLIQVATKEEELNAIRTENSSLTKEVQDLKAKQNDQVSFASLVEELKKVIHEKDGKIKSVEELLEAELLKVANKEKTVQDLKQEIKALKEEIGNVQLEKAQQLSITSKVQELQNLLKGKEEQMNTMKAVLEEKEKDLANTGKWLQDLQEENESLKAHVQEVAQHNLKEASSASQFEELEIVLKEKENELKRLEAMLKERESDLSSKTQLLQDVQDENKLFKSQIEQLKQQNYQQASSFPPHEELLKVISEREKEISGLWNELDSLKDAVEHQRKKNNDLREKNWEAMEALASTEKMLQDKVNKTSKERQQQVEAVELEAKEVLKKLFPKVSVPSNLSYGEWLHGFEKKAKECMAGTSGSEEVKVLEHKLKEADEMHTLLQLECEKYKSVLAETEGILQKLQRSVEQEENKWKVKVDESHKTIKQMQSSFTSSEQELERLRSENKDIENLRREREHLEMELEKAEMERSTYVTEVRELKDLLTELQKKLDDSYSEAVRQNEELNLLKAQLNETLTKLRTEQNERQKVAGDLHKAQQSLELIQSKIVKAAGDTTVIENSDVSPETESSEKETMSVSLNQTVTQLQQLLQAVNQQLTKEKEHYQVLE
# Sequence of FBXO6 (human) (Q9NRD1 whole entry): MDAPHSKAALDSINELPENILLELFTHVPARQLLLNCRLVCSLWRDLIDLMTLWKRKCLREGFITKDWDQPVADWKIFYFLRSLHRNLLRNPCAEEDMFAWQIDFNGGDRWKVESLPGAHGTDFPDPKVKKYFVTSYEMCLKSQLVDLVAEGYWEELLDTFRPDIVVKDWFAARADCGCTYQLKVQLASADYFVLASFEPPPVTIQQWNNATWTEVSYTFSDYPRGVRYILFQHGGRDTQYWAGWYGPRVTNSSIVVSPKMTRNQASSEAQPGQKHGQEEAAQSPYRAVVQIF
# Sequence of TFAM (human) (Q00059 43-246 limits assumed): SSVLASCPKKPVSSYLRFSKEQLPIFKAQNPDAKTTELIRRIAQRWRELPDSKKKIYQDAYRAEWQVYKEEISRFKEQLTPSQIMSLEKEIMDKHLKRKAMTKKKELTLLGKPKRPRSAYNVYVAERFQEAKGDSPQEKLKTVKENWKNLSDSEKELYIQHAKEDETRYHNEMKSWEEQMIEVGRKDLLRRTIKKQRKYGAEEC
# Sequence of TCP1 (human) (P17987 whole entry): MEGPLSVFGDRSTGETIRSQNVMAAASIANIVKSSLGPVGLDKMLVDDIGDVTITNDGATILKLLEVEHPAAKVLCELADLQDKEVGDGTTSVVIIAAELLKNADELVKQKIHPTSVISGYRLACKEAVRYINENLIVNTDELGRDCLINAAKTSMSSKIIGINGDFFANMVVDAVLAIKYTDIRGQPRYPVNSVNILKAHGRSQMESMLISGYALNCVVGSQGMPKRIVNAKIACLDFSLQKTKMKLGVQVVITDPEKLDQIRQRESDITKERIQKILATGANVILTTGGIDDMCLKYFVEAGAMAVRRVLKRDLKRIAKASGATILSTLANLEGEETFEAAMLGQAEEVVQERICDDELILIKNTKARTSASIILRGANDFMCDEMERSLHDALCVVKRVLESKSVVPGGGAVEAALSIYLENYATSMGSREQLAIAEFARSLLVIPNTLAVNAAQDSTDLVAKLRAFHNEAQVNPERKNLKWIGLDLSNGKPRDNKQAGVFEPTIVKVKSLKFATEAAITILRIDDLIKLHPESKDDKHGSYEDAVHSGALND
# Sequence of HDGFL2 (human) (Q7Z4V5 whole entry): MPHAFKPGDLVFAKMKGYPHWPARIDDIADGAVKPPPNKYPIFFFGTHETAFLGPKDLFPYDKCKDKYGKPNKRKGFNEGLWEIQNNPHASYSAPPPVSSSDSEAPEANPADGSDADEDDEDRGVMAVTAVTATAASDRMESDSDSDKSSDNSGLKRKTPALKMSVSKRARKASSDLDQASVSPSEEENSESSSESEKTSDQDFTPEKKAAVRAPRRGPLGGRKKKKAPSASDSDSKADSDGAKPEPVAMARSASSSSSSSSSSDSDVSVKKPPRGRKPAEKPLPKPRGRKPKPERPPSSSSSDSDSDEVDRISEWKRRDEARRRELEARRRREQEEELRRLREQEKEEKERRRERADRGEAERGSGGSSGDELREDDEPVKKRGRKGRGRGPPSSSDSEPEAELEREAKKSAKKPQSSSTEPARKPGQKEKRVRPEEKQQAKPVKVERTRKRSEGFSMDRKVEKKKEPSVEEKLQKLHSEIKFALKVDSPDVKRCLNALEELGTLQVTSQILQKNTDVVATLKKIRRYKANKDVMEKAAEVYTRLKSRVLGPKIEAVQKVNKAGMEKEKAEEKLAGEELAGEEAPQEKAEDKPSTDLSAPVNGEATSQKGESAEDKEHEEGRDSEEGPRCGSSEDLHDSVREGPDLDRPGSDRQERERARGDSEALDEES
substance,measurement,setting,value
IgG control (Millipore Sigma 12-371) (antibody),co-IP mass spectrometry count,ZRANB2 (human),0
same,co-IP mass spectrometry count,PSMB6 (human),0
same,co-IP mass spectrometry count,RRBP1 (human),0
same,co-IP mass spectrometry count,ERP44 (human),0
same,co-IP mass spectrometry count,H1FX (human),0
same,co-IP mass spectrometry count,PXN (human),0
same,co-IP mass spectrometry count,PDIA4 (human),0
same,co-IP mass spectrometry count,AIFM1 (human),0
same,co-IP mass spectrometry count,PSMB4 (human),0
same,co-IP mass spectrometry count,LARP4 (human),0
same,co-IP mass spectrometry count,HDGFL2 (human),0
same,co-IP mass spectrometry count,PSMA5 (human),0
same,co-IP mass spectrometry count,IFI16 (human),0
same,co-IP mass spectrometry count,STAU1 (human),0
same,co-IP mass spectrometry count,ACSL3 (human),0
same,co-IP mass spectrometry count,ATAD3A (human),0
same,co-IP mass spectrometry count,NTPCR (human),0
same,co-IP mass spectrometry count,DNAJA3 (human),0
same,co-IP mass spectrometry count,KTN1 (human),0
same,co-IP mass spectrometry count,RPL15 (human),0
same,co-IP mass spectrometry count,PSMC2 (human),0
same,co-IP mass spectrometry count,TECR (human),0
same,co-IP mass spectrometry count,ERP29 (human),0
same,co-IP mass spectrometry count,FBXO6 (human),0
same,co-IP mass spectrometry count,ELOC (human),0
same,co-IP mass spectrometry count,PGAM5 (human),0
same,co-IP mass spectrometry count,EEF2 (human),0
same,co-IP mass spectrometry count,RPS6 (human),2
same,co-IP mass spectrometry count,RCN1 (human),0
same,co-IP mass spectrometry count (N-term IgG),TAF15 (human),10
same,co-IP mass spectrometry count (N-term IgG),SUPT16H (human),0
same,co-IP mass spectrometry count (N-term IgG),TFAM (human),0
same,co-IP mass spectrometry count (N-term IgG),CPSF6 (human),28
same,co-IP mass spectrometry count (N-term IgG),TCP1 (human),0
same,co-IP mass spectrometry count (N-term IgG),CASC3 (human),0
same,co-IP mass spectrometry count (N-term IgG),CAPRIN1 (human),6
same,co-IP mass spectrometry count (N-term IgG),ANXA2 (human),15
same,co-IP mass spectrometry count (N-term IgG),EIF3I (human),0
same,co-IP mass spectrometry count (N-term IgG),KHDRBS1 (human),10
